Molecular target: camel-derived heavy-chain antibodies on camel PBMC cells
Experiment: flow cytometry, PE-labeled antibody on PBMC of a non-immunized camel

Binder | proportion of PBMC cells specific for heavy-chain antibodies [%]
R166.G8 (antibody, V domains shown) VH: LEQSGGGAEGGLVKPGGSLELCCKASGFSLSNIYWICWVRQAPGTGLEWIGCINSGSNSYTYYANWVDGRFTLSRDIDQSTGCLQLNSLTAADTAMYYCARDRDAADTSDWSLNFWGQGTLVTVSS VL: QVLTQTPSSVSAAVGGTVTISCQSSDSVNNDNWLAWYQQKPGQPPKLLIYQASKLASGVPSRFSGSGSGTQFTLTISGVQCDDAANYYCQGTGYSSTWYVAFGGGTEVVVKG | 17.2
R166.H9 (antibody, V domains shown) VH: QSLEESGGRLVTPGTPLTLTCTASGFSLNNYNMIWVRQAPGEGLEWIGMIGDGDDAAWYASWAKGRFTISKTSTTVDLEVTSLTTEDTAIYFCARYLSFTRLDLWGQGTLVTVSS VL: AVLTQTPSPVSAAVGGTVTINCQSSQSVYHNNWLAWYQQKPGQPPKLLIYGAATLASGVPSRFKGSGSGTQFTFTITDVQCDDVGTYYCAGVYNDDSENAFGGGTEVVVKG | 24.2
R166.E7 (antibody, V domains shown) VH: QSVEESGGRLVTPGTPLTLTCTVSGFSLSSFAMSWVRQAPGKGLEWIGIIYTGGTRDYATWAKGRFTISKTSTTVDLKMTSPTTEDTATYFCARDRSPDYSAAFNLWGQGTLVTVSS VL: IVMTQTPSSKSVPVGDTVTINCQASESVYSNNHLAWFQQKPGQPPKLLIYSASTLESGVPSRFKGSGSGTQFTLTISGVQCDDAATYYCAGYKSSDTDGTSFGGGTEVVVKG | 23.3

More lines, now with the values ahead:

proportion of PBMC cells specific for heavy-chain antibodies [%] | Binder
22.8 | R166.C5 (antibody, V domains shown) VH: QSVEESGGRLVTPGTPLTLTCTVSGFSLRNFAMSWVRQAPGKGLEWIGIIYSGGTRDYATWAKGRFTISKTSTTVDLKMTSPTTEDTATYFCARDRSPDYSAAFLLWGQGTLVTVSS VL: IVMTQTPSSKSVPVGDTVTINCQASESVYSNNHLAWFQQKPGQPPKLLIYSASTLESGVPSRFKGSGSGTQFTLTISGVQCDDAATYYCAGYKSSDTDGTSFGGGTEVVVKG
23.6 | R166.H8 (antibody, V domains shown) VH: QSVEESGGRLVTPGTPLTLTCTVSGFSLSSFAMSWVRQAPGKGLEWIGIIYATGGTRDYATWAAGRFTISKTSTTVGLKMTSPTTEDTATYFCARDRSPDYSAAFNLWGQGTLVTVSS VL: IVMTQTPSSKSVPVGDTVTINCQASESVYSNNHLAWFQQKPGQPPKLLIYSASTLESGVPSRFKGSGSGTQFTLTISGVQCDDAATYYCAGYKSSDTDGTSFGGGTEVVVKG
